Assay [1] deals with PfRipr (residues 20 to 1086) (P. falciparum) (UniProt O97302). The assay can be described thus: BLI; PfRipr or PfPTRAMP at 20 μg/ml immobilised on Anti-Penta-His (His1K) biosensors, twofold dilution series of PTRAMP–CSS or PfCSS; 25 °C, PBS pH 7.4, 0.1% BSA, 0.02% Tween-20; 1:1 model. Background: In BLI a coated tip is dipped into the sample, and binding shifts an interference pattern.

Assay [2] has as its target PfPTRAMP (residues 25 to 309) with a C-terminal His-tag (P. falciparum). The assay is described as above.

For 2 substances, Kd results are on record in article PMC9712106.

In assay [1], “PTRAMP–CSS heterodimer (disulfide-linked PfPTRAMP 42–309 and PfCSS 20–290) (complex)” had a Kd of 3.6 µM. That is a single-digit micromolar value.
As for “PfCSS (residues 20 to 290) (domain or fragment)”, the Kd in assay [2] was 19 µM; in assay [1], 1.1 µM.

What is called Kd is a measure of binding affinity in units of concentration.
